These results are taken from patent publication US20230001006A1 (GAMAMABS PHARMA, published 2023).

The target of assay [1] is T1, anti-Müllerian hormone type II receptor (AMHRII), immobilised on the SPR chip (human, UniProt Q16671 18-149, limits assumed).
T1 construct: also called AMHR2
Nature of the assay: SPR (Bia3000, 25°C), AMHRII covalently immobilised on a CM5 chip, ADC injected, Langmuir 1:1 fit (Example 3). As to the method: All kinetic measurements are performed on a Bia3000 apparatus at 25° C. in PBS pH 7.4 containing 0.005% of P20 surfactant at 50 μl/min on control and AMHRII Flowcells. The antibody is injected during 180 s at concentrations given in the appendix. After a dissociation step of 400 s in running buffer, sensor surfaces are regenerated using one pulse of 15 μl of Gly-HCL pH1.7. All the sensorgrams are corrected by subtracting the low signal from the control reference surface and blank buffer. Kinetic parameters are evaluated from the sensorgrams using a Langmuir 1:1 model on the BiaEvaluation software 4.2.
For kinetic studies all the mAb and ADC are injected at various concentrations (0.7 nM-100 nM). The sensorgrams are evaluated by L1:1 fitting model (BiaEvaluation 4.2 software) starting of minimum 3 (n=3) separated experiments or fits to obtain average values for ka, kd and KD with standard deviation (SD). Several experiments are performed on the same AMHRII-coated surface after verification of the responses stability to 10 nM injection of 3C23K before and after the experiment series with each mAb/ADC. All results are obtained from two AMHRII-coated Flowcells.

The target of assay [2] is T2, AMHRII on the COV434 AMHRII transfected cell line (~80,000 receptors) (human, UniProt Q16671 18-573).
T2 sequence: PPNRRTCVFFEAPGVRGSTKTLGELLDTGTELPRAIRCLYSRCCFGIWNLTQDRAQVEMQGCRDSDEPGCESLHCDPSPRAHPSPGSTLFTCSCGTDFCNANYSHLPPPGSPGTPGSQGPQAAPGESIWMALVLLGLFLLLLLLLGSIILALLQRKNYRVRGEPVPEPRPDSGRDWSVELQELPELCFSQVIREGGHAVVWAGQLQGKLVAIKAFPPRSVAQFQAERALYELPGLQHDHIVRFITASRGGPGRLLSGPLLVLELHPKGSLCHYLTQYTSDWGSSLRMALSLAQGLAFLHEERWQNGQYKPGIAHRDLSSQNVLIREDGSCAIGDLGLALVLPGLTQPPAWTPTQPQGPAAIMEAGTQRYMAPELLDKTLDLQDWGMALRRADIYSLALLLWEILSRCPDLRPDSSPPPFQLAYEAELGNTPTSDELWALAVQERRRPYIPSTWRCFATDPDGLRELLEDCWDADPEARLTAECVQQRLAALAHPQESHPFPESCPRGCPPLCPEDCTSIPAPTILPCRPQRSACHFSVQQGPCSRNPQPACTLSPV
Nature of the assay: cell-based or functional assay.

In another assay the target is T3, FcRn.
T3 construct: also called neonatal Fc receptor
The assay is described as follows: SPR ('Binding SPR (KD)' row FcRn); set-up not given.

The term Kd denotes the concentration at which binding is half-saturated. A lower Kd goes with tighter binding.

B1: GM104 (antibody, human IgG1, kappa)
heavy: QVRLVQSGAEVKKPGASVKVSCKASGYTFTSYHIHWVRQAPGQRLEWMGWIYPGDDSTKYSQKFQGRVTITRDTSASTAYMELSSLRSEDTAVYYCTRGDRFAYWGQGTLVTVSSASTKGPSVFPLAPSSKSTSGGTAALGCLVKDYFPEPVTVSWNSGALTSGVHTFPAVLQSSGLYSLSSVVTVPSSSLGTQTYICNVNHKPSNTKVDKRVEPKSCDKTHTCPPCPAPELLGGPSCVFLFPPKPKDTLMISRTPEVTCVVVDVSHEDPEVKFNWYVDGVEVHNAKTKPREEQYNSTYRVVSVLTVLHQDWLNGKEYKCKVSNKALPAPIEKTISKAKGQPREPQVYTLPPSREEMTKNQVSLTCLVKGFYPSDIAVEWESNGQPENNYKTTPPVLDSDGSFFLYSKLTVDKSRWQQGNVFSCSVMHEALHNHYTQKSLSLSPGK
light: DIQMTQSPSTLSASVGDRVTITCRASSSVRYIAWYQQKPGKAPKLLTYPTSSLESGVPSRFSGSGSGTEFTLTISSLQPDDFATYYCLQWSSYPWTFGGGTKVEIKRTVAAPSVFIFPPSDEQLKSGTASVVCLLNNFYPREAKVQWKVDNALQSGNSQESVTEQDSKDSTYSLSSTLTLSKADYEKHKVYACEVTHQGLSSPVTKSFNRGEC
notes: also called GM104 ADC; ADC according to the invention
Turning to B1, the Kd in assay [1] came to 1.7 nM; in the assay with FcRn, 22 nM. Also, in assay [2], the “IC50, proliferation/viability of COV434 AMHRII transfected cells after 72 h (CellTiter Blue)” value is 220 pM.
